Laboratory results from publication PMC5591422, “A Peptide-Fc Opsonin with Pan-Amyloid Reactivity” (Frontiers in Immunology, 2017).
Ends that are not written are not given here.

T1: IAPP amyloid-like fibrils (human, UniProt P10997 34-70)
T1 construct: islet amyloid polypeptide, the mature hormone; Fibrillar state; also called IAPP fibrils; islet amyloid polypeptide fibrils; source: bought: Anaspec (90% pure); fibrils prepared in sterile PBS
T1 peptide (looked up): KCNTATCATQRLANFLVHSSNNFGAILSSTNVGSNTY


Columns and labels:
[1] = biological target: T1, IAPP amyloid-like fibrils; assay: ELISA; EuLISA: amyloid-like fibrils (0.83 µM) adsorbed to microplate wells overnight at 37°C, blocked with 1% BSA in PBS; Fcp5, biotinylated-p5 or Fc2a titrated in PBS with 1% BSA and 0.05% tween 20; detected with biotinylated goat anti-mouse IgG and europium-streptavidin; estimated EC50; details: both partners purified
[2] = biological target: Aβ(1–40) amyloid-like fibrils; assay: as above
[3] = biological target: rVλ6Wil amyloid-like fibrils; assay: as above
[4] = biological target: rVλ6Wil amyloid-like fibrils; assay: SPR; BIAcore X, CM5 chip coated with rVλ6Wil fibrils (channel 1) and rVλ6Wil monomer (channel 2, subtracted as control); Fcp5 2 µg/mL or p5 0.2 µg/mL, 70 µL, 20 µL/min, 200 s binding and 200 s dissociation; two-state binding algorithm with conformational change

| EC50 [1] [nM] | EC50 [2] [nM] | EC50 [3] [nM] | Kd [4] [nM] | signal deflection [4] [au] | Binder |
| --- | --- | --- | --- | --- | --- |
| ~200 | 230 | 14 | 5 | 100 | GGGYSKAQKAQAKQAKQAQKAQKAQAKQAKQ (also: biotinylated in EuLISA, site not given here, 125I-labelled in pulldown assays, non-natural 31-amino acid peptide with eight lysines in a heptad repeat; also called biotinylated-p5; source: synthetic peptide (Anaspec), purified by RP-HPLC) [peptide p5] |
| ~15 | 4 | 1 | 3 | 200 | VTPTVGGGYSKAQKAQAKQAKQAQKAQKAQAKQAKQVTPTV (Fc fusion, not fully specified (C-terminus); also: fused to murine IgG2a Fc, glycosylated, site not given here, 5-amino acid spacer flanking p5; peptide p5, non-natural 31-amino acid polybasic peptide; Disulfide-linked dimer by SDS-PAGE (theoretical monomer Mw 31,553); Cloned into the Nco I and Bgl II sites of pFUSE-mIgG2A-Fc in frame with the IL-2 secretory leader and the Fc; also called peptide p5-Fc fusion construct; source: HEK293T/17, transient transfection, purified from culture supernatant (protein …)) [Fcp5 (peptide p5-murine IgG2a Fc fusion)] |
